The text below walks through data of US20210380703A1 (RIGEL PHARMACEUTICALS, published 2021).

Positions count from the first letter of the chain named.

B1: 371_B03 (antibody, V domains shown)
VH: EVQLLESGGGLVQPGGSLRLSCAASGFTFSSYGMHWVRQAPGKGLEWVASINYNGGYTSYADSVKGRFTISRDNSKNTLYLQMNSLRAEDTAVYYCARGANWHDTHLDYWGQGTLVTVSS
VL: DIQMTQSPSSLSASVGDRVTITCRASQSILSYVNWYQQKPGKAPKLLIYATTSRASGVPSRFSGSGSGTDFTLTISSLQPEDFATYYCQQSYDNPLTFGGGTKVEIK
notes: Group III
B2: 371_F11 (antibody, V domains shown)
VH: B1 VH with G33S, H35N, A49S, S50G, H106A
VL: B1 VL with L30I, T51V, N94L
notes: Group III
B3: 371_C12 (antibody, V domains shown)
VH: B1 VH with G33S, H35N, S50G, G55S, T58K
VL: B1 VL with L30V, T51A, N94T
notes: Group III
B4: 372_E01 (antibody, V domains shown)
VH: B1 VH with S30D, S31D, G33S, H35N, A49S, S50G, T58K, S59G, H106A
VL: B1 VL with L30V, V33L, L47V, T51A, A55H, N94S
notes: Group III
B5: 372_G12 (antibody, V domains shown)
VH: B1 VH with S30D, G33S, H35N, S50G, S59G
VL: B1 VL with S31T, V33L, L47V, T51A, A55H, N94S
notes: Group III
B6: 372_D03 (antibody, V domains shown)
VH: B1 VH with G33S, H35N, S50G, G55S, T58K, H106A
VL: B1 VL with L47V, T51V, A55H, N94S
notes: Group III
B7: 371_G04 (antibody, V domains shown)
VH: B1 VH with S30D, G33S, H35N, A49S, S50G, T58K, H106A
VL: B1 VL with V33L, T51A, R54L, A55H, D93E, N94S
notes: Group III
B8: 371_D02 (antibody, V domains shown)
VH: B1 VH with S30D, S31D, G33S, H35N, S50G, T58K, H106A
VL: B1 VL with L30V, S31T, V33L, T51A, N94S
notes: Group III
B9: 371_C04 (antibody, V domains shown)
VH: B1 VH with S30D, H35N, A49S, S50G, G55S, T58K, S59G, H106A
VL: B1 VL with V33L, T51A, D93S, N94T
notes: Group III
B10: 371_E07 (antibody, V domains shown)
VH: B1 VH with S30D, G33S, H35N, S50G, H106A
VL: B1 VL with L30I, V33L, T51A, R54L, D93E, N94S
notes: Group III
B11: 371_F10 (antibody, V domains shown)
VH: B1 VH with S30D, H35N, A49S, S50G, G55S, H106A
VL: B1 VL with L30S, V33L, L47V, T51V, D93E, N94S
notes: Group III
B12: 371_D04 (antibody, V domains shown)
VH: B1 VH with S30D, S31D, G33S, H35N, S50G, S59G
VL: B1 VL with L30V, T51A, R54L, D93E
notes: Group III
B13: 373_A01 (antibody, V domains shown)
VH: B1 VH with H35N, A49S, S50N, S59G
VL: B1 VL with L30V, S31T, V33L, L47V, D93N, N94L
notes: Group III
B14: 371_B12 (antibody, V domains shown)
VH: B1 VH with S31D, G33S, H35N, S50G, G55S, H106A
VL: B1 VL with L30V, S31T, V33L, L47V, T51A, A55H, D93N
notes: Group III
B15: 371_G11 (antibody, V domains shown)
VH: B1 VH with H35N, A49S, S50N, G55S, H106A
VL: B1 VL with T51A, R54L, N94S
notes: Group III
B16: 371_B09 (antibody, V domains shown)
VH: B1 VH with G33S, H35N, S50G, G55S, S59G
VL: B1 VL with L47V, R54L, N94T
notes: Group III
B17: 371_G02 (antibody, V domains shown)
VH: B1 VH with S30D, H35N
VL: B1 VL with V33L, T51A, N94L
notes: Group III
B18: 371_G09 (antibody, V domains shown)
VH: B1 VH with G33S, H35N, S50N, S59G, H106A
VL: B1 VL with V33L, L47V, T51A, Y92D, D93S, N94T
notes: Group III
B19: 371_H08 (antibody, V domains shown)
VH: B1 VH with H35N, T58K, S59G
VL: B1 VL with L30I, L47V, T51V, N94T
notes: Group III
B20: 371_C05 (antibody, V domains shown)
VH: B1 VH with S31D, S50N, S59G, H106A
VL: B1 VL with V33L, T51A, N94S
notes: Group III
B21: 371_E06 (antibody, V domains shown)
VH: B1 VH with G33S, H35N, A49S, S50G, H106A
VL: B1 VL with L30S, S31T, V33L, T51V, R54L, A55H, D93E, N94S
notes: Group III
B22: 371_E10 (antibody, V domains shown)
VH: B1 VH with S30D, G33S, H35N, S50G, H106A
VL: B1 VL with L30S, S31T, V33L, T51V, D93N, N94S
notes: Group III
B23: 371_H06 (antibody, V domains shown)
VH: B1 VH with S30D, H35N, A49S, S50G, H106A
VL: B1 VL with L30S, V33L, L47V, T51V, N94L
notes: Group III
B24: 372_C06 (antibody, V domains shown)
VH: B1 VH with S31D, G33S, H35N, A49S, S50G, H106A
VL: B1 VL with L30V, T51A, D93S, N94S
notes: Group III
B25: 371_H05 (antibody, V domains shown)
VH: B1 VH with H35N, A49S, S50G, G55S, T58K, H106A
VL: B1 VL with L30I, V33L, T51A, R54L, D93S, N94L
notes: Group III
B26: 373_A03 (antibody, V domains shown)
VH: B1 VH with S31D, G33S, H35N, S50N, S59G, H106A
VL: B1 VL with V33L, L47V, T51A
notes: Group III
B27: 371_H10 (antibody, V domains shown)
VH: B1 VH with G33S, H35N, S50G, G55S, T58K
VL: B1 VL with L30S, S31T, V33L, T51A, A55H, D93E
notes: Group III
B28: 371_B04 (antibody, V domains shown)
VH: B1 VH with G33S, H35N, A49S, S50G, T58K, H106A
VL: B1 VL with V33L, L47V, T51V, A55H, N94S
notes: Group III
B29: 371_C01 (antibody, V domains shown)
VH: B1 VH with A49S, S59G
VL: B1 VL with L30V, V33L, T51A, A55H
notes: Group III
B30: 371_H04 (antibody, V domains shown)
VH: B1 VH with H35N, A49S, S50N, S59G, H106A
VL: B1 VL with S31T, V33L, T51A, D93N, N94S
notes: Group III
B31: 372_B02 (antibody, V domains shown)
VH: B1 VH with G33S, H35N, A49S, S50G, G55S, H106A
VL: B1 VL with T51V, R54L, D93E, N94T
notes: Group III
Note: test concentration or dose not given here.

The first test deals with T1, mouse ACVR2A (mouse, UniProt P27038 20-135, limits assumed).
T1 construct: coated antigen of the initial ELISA
T1 sequence (P27038 20-135 limits assumed): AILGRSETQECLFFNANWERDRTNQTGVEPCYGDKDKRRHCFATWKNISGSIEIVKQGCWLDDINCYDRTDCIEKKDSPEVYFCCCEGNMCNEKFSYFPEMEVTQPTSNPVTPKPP
Kind of test: ELISA. The method, boiled down:
(§1)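 ELISA measured binding of ACVR2A-specific monoclonal antibodies to human and mouse ACVR2A. Biotinylated goat anti-human kappa light chain served as positive control and human Fc as negative control.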
For B1, the optical density worked out at 1.94 OD.

Consider B2, for which the optical density turned out to be 3.25 OD.

Molecule B3 had an optical density of 3.2 OD.

Regarding B4, the optical density is 3.34 OD.

On to B5, for which the optical density came out at 2.73 OD.

With B6, the optical density was determined as 3.29 OD.

Molecule B7 had an optical density of 3.58 OD.

B8: the optical density was 2.99 OD.

Consider B9, for which the optical density turned out to be 2.25 OD.

B10 gave an optical density of 3.35 OD.

Regarding B11, the optical density was 2.31 OD.

Molecule B12 returned an optical density of 1.29 OD.

B13 had an optical density of 3.48 OD.

For the molecule B14, the optical density stood at 2.4 OD.

Molecule B15 yielded an optical density of 2.75 OD.

B16 showed an optical density of 0.827 OD.

On to B17, for which the optical density worked out at 3.06 OD.

The molecule B18 showed an optical density of 3.07 OD.

The molecule B19 yielded an optical density of 2.04 OD.

With B20, the optical density amounted to 1.35 OD.

In turn, B21 displayed an optical density of 3.03 OD.

On to B22, for which the optical density stood at 3.05 OD.

Take B23: the optical density was 3.11 OD.

For B24, the optical density is 3.54 OD.

B25 came in with an optical density of 1.25 OD.

B26 yielded an optical density of 3.63 OD.

For B27, the optical density is 2.55 OD.

Molecule B28 had an optical density of 3.13 OD.

In the case of B29, the optical density stood at 2.27 OD.

Take B30: the optical density came to 3.51 OD.

As for B31, the optical density was 3.51 OD.

The target in the next test is T2, human ACVR2A (human, UniProt P27037 20-135, limits assumed).
T2 construct: coated antigen of the initial ELISA; also called activin receptor, type II A
T2 sequence (P27037 20-135 limits assumed): as the sequence (P27038 20-135 limits assumed) above, with R20K, I73V counted along it
The experiment in a line: ELISA. The method, boiled down: as §1
Regarding B1, the optical density was 1.63 OD.

On to B2, for which the optical density was found to be 3.04 OD.

In the case of B3, the optical density came to 3.1 OD.

For B4, the optical density turned out to be 3.34 OD.

B5: the optical density worked out at 2.41 OD.

B6 had an optical density of 3.04 OD.

With B7, the optical density was 3.62 OD.

Molecule B8 returned an optical density of 2.94 OD.

For the molecule B9, the optical density came out at 2.05 OD.

For B10, the optical density is 3.09 OD.

On to B11, for which the optical density stood at 2.34 OD.

B12 came in with an optical density of 1.02 OD.

Consider B13, for which the optical density was 3.18 OD.

Turning to B14, the optical density was 2.56 OD.

As for B15, the optical density was found to be 2.84 OD.

Consider B16, for which the optical density came out at 0.825 OD.

The molecule B17 returned an optical density of 3.12 OD.

B18: the optical density came to 2.75 OD.

Molecule B19 came in with an optical density of 1.66 OD.

B20 returned an optical density of 1.24 OD.

For B21, the optical density is 3 OD.

Consider B22, for which the optical density is 3.06 OD.

Molecule B23 registered an optical density of 3.03 OD.

Consider B24, for which the optical density came out at 3.21 OD.

As for B25, the optical density worked out at 1.2 OD.

In the case of B26, the optical density came out at 3.65 OD.

The molecule B27 registered an optical density of 2.19 OD.

Regarding B28, the optical density was 2.46 OD.

In the case of B29, the optical density was found to be 2 OD.

B30 showed an optical density of 3.26 OD.

B31 displayed an optical density of 3.17 OD.

The next test addresses T3, biotinylated goat anti-human kappa light chain.
T3 construct: positive control of the ELISA
The experiment in a line: ELISA, positive control. In short, it runs like this:
as §1
In general terms: ELISA stands for enzyme-linked immunosorbent assay.
B1: the optical density is 3.48 OD.

For the molecule B2, the optical density stood at 3.68 OD.

The molecule B3 showed an optical density of 3.68 OD.

In the case of B4, the optical density worked out at 3.6 OD.

The molecule B5 came in with an optical density of 3.5 OD.

In turn, B6 displayed an optical density of 3.6 OD.

For the molecule B7, the optical density was determined as 3.54 OD.

As for B8, the optical density turned out to be 3.58 OD.

Take B9: the optical density is 3.45 OD.

B10 displayed an optical density of 3.44 OD.

For B11, the optical density is 3.53 OD.

Turning to B12, the optical density worked out at 3.3 OD.

As for B13, the optical density worked out at 2.95 OD.

The molecule B14 yielded an optical density of 3.48 OD.

The molecule B15 gave an optical density of 3.67 OD.

Consider B16, for which the optical density is 2.7 OD.

The molecule B17 showed an optical density of 3.67 OD.

Molecule B18 showed an optical density of 3.58 OD.

In turn, B19 showed an optical density of 3.47 OD.

Consider B20, for which the optical density was 3.08 OD.

B21: the optical density is 3.44 OD.

With B22, the optical density was 3.49 OD.

Molecule B23 registered an optical density of 3.7 OD.

In the case of B24, the optical density worked out at 3.49 OD.

As for B25, the optical density was found to be 3.27 OD.

Turning to B26, the optical density amounted to 3.08 OD.

In turn, B27 had an optical density of 3.55 OD.

Take B28: the optical density was 2.27 OD.

The molecule B29 yielded an optical density of 3.59 OD.

B30 displayed an optical density of 3.58 OD.

On to B31, for which the optical density was determined as 3.67 OD.
